Source: the supplement of paper PMC12042874
± gives the uncertainty stated by the source.

assay: amyloid nucleation score (Sup35N fusion, yeast selection) (log enrichment); library NNK1; higher = more nucleation; inactive = no reads after selection
Summary of the method: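 Output and input plasmid inserts were sequenced by Illumina after psi-negative yeast carrying Sup35N fused to peptides of 20 random codons had been induced 24 hours with 100 μM copper sulfate and grown 7 days at 30°C on medium lacking adenine and uracil. The nucleation score is the DiMSum log enrichment of output over input reads, centred on the mode score of non-aggregating sequences. Sequences with under 100 input reads were excluded.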

Substance | amyloid nucleation score
IYIMKHASSSMNGVSVQDFM | 0.695 ± 0.67
IYMVGAEPVRERDIVFVPTL | 1.24 ± 0.98
IYMVSC | 0.077 ± 0.27
IYNIVGSLMSSAVFPGQSIS | -1.38 ± 1.2
IYNLDWSF | -0.99 ± 1.3
IYPCICSRNFDPKLYKVNTR | 0.605 ± 0.66
IYQQIYN | -0.807 ± 2.4
IYRFSCETHIFQYSRQVLFG | 0.786 ± 0.63
IYRMRDNMNSRLRVYFNRVF | inactive
IYTDSVGLFCSYADMPSDRV | 0.372 ± 1.4
IYTLGKKGMNHHDVGQWLFT | 1.55 ± 0.5
IYYRTMYYMVVSSIN | 0.394 ± 0.65
KACDRFNLTYKTVSVRMGDC | 0.39 ± 0.28
KAFNVFER | 0.225 ± 0.53
KAMLNNKWHLCSHVRTDHAV | 0.172 ± 0.32
KAPKYRDRRVGVNVKYWYMP | 0.058 ± 0.66
KAPNRE | -0.063 ± 0.66
KAVYLRVRGTHCVNNVALWK | 3.43 ± 0.18
KAYRV | -0.633 ± 0.39
KCAWNQVNDSNLVAYRASC | 5.13 ± 0.097
KCLTFHVSNVFITANPLCLL | 5.936 ± 0.054
KCWPLLRITSVCVFAFTGER | 0.937 ± 0.58

Substance | amyloid nucleation score
KEGRPQSTLCNVVRGFREQY | -0.565 ± 0.7
KENRFISQSDTALYSIKKQH | 0.549 ± 1
KETSVSLHEDGIYCGFITSN | 0.187 ± 0.28
KFRESFLT | -1.32 ± 0.94
KGDNVEIMQTFDKSCLDIGA | inactive
KGDVPGYARCEVKTVRTFWM | 0.231 ± 0.41
KGFLRFG | 0.333 ± 0.38
KGKAAT | -0.534 ± 0.87
KGLCDNVMDLVRLKGGSEAG | 0.443 ± 0.42
KGLEPLCLRSFFLWRERFRD | -0.686 ± 0.49
KGLGRF | -0.788 ± 0.74
KGLLTGSCVDSS | -0.015 ± 0.51
KGWLKTGVYGHVSFVGNIME | 0.467 ± 0.75
KHCTRFRVRRMYYDVTKILL | inactive
KHSGFQTCVNYLD | -0.194 ± 0.42
KIGLPGLCVW | 0.063 ± 0.54
KIGWL | -0.555 ± 0.58
KKGVIGKG | -2.31 ± 1.6
KKLVA | 0.286 ± 0.43
KKPCVTGYRKNRWEELEP | -0.393 ± 0.42
KKPQSGSCTRLSSESYKSVY | 0.464 ± 0.82
KKRPPAPSMEVRLGARMVAG | 0.324 ± 1

Substance | amyloid nucleation score
KLGTPLRQSDVS | -0.461 ± 0.59
KLIRYYRFACVMSFRVFYSF | inactive
KLIYLMGPIPWVLRSCWQVF | 0.208 ± 0.37
KLSGFKFEVTCDGHEFWGHP | 1.08 ± 0.54
KLSSKWTRACRHNSC | -0.134 ± 1.3
KLVVKWRGFLEDGDRTLWLV | 3.49 ± 0.13
KMFVIVWCDFDAGALGATVN | -0.488 ± 0.58
KMKSEDT | 1.07 ± 0.25
KMLNISGDTMWYVILVLRYV | -0.292 ± 0.56
KMTCSPSH | 0.867 ± 0.88
KNCPALRSFSSKDSSSFVWS | -0.23 ± 0.43
KNPLVIKKRF | 0.204 ± 0.59
KNWARIMRNRNYSVSAILW | 0.163 ± 0.61
KPGFYT | -0.705 ± 0.92
KPKCNHRDRTSLEILRNNAL | 1.35 ± 0.43
KPLCLNYKCLYIILVCVGDP | 0.151 ± 0.27
KQCGVKWFMAG | 0.437 ± 1.4
KREKEYFNERLPTDLSLQRC | -1.21 ± 0.66
KRGLAVLGAPKQMQTACWGQ | 0.229 ± 0.83
KRIVCMFSWPSLT | -0.921 ± 0.88
KRSNSFL | 0.319 ± 0.27
KRTESKLDYFKVRLCRTRFS | 0.122 ± 0.43

Substance | amyloid nucleation score
KRTLYSSIRF | 1.74 ± 0.15
KSLVNNCDSVIAL | 0.506 ± 0.25
KSRFSDGGSSWFCGTFMFYT | -0.723 ± 0.42
KSRRSCQQLIIVKHVVHARR | 4.08 ± 0.061
KSSGALDMFSDTNMV | -0.894 ± 0.39
KSTLVKHLNQYYRLVLMGPL | 1.1 ± 0.54
KSTSYNLIDIMAGSSLTNNR | 0.274 ± 0.28
KSTTYKNLPSHGLRNSICTK | 0.842 ± 0.69
KSYNWDYGHLRVNYGGHMMI | -0.544 ± 1.4
KSYYGSLNLAMSTSLYIQTM | 0.769 ± 0.34
KTFTNGLCDPDVYGTIWAM | 0.488 ± 0.36
KTFVPWISCATSIEVFYVAS | 1 ± 0.54
KTGCVGTS | inactive
KTLSLLIL | 0.387 ± 0.37
KTTLCM | -0.088 ± 0.39
KTWLIG | 0.109 ± 0.54
KTWRHSFLYFLTGIESRKGA | 0.094 ± 0.26
KVALESSRAV | 0.036 ± 0.88
KVASSDMSDLSTH | inactive
KVFGTRPSQCLGFN | -0.806 ± 0.65
KVFISCYLWYA | 3.8 ± 0.072
